In patent US20240209106A1 (BEIGENE SWITZERLAND, published 2024):
Numbering of substitutions follows the chain as printed. In names and notes the source's numbering stands.

B1: BE-718 (A-BGA-5623-BGA-5623) (bispecific antibody, human IgG1, kappa)
heavy: QVQLVQSGAEVKKPGASVKVSCKASGYIFTSYYLHWVRQAPGQGLEWIGYINPQTGKTSYAQKFQGRVTMTRDTSTSTVYMELSSLRSEDTAVYYCAREYGNYNYPLDYWGQGTLVTVSSASTKGPSVFPLAPSSKSTSGGTAALGCLVKDYFPEPVTVSWNSGALTSGVHTFPAVLQSSGLYSLSSVVTVPSSSLGTQTYICNVNHKPSNTKVDKKVEPKSCDKTHTCPPCPAPPAAGPSVFLFPPKPKDTLMISRTPEVTCVVVDVSHEDPEVKFNWYVDGVEVHNAKTKPREEQYNSTYRVVSVLTVLHQDWLNGKEYKCKVSNKALAAPIEKTISKAKGQPREPQVYTLPPSREEMTKNQVSLTCLVKGFYPSDIAVEWESNGQPENNYKTTPPVLDSDGSFFLYSKLTVDKSRWQQGNVFSCSVMHEALHNHYTQKSLSLSPGKGGGGSEVQLLESGGGLVQPGGSLRLSCAASGFTVSAEDVGWVRQAPGKGLEWVSAILDKGGSTYYAESVKGRFTISRDNAKNTLYLQMSSLRAEDTAVYYCARIVYHAGGGVTFDTRGQGTQVTVSSGGGGSEVQLLESGGGLVQPGGSLRLSCAASGFTVSAEDVGWVRQAPGKGLEWVSAILDKGGSTYYAESVKGRFTISRDNAKNTLYLQMSSLRAEDTAVYYCARIVYHAGGGVTFDTRGQGTQVTVSS
light: DIQMTQSPSSLSASVGDRVTITCRASENQYGYLAWYQQKPGKVPKLLIYNYKNLVEGVPSRFSGSGSGTDFTLTISSLQPEDVATYYCQHHLGTPYTFGQGTKVEIKRTVAAPSVFIFPPSDEQLKSGTASVVCLLNNFYPREAKVQWKVDNALQSGNSQESVTEQDSKDSTYSLSSTLTLSKADYEKHKVYACEVTHQGLSSPVTKSFNRGEC
B2: BE-740 (A-IgG1-BGA-5623) (bispecific antibody)
heavy: not shown
light: B1 light
B3: BE-942 (ZW 1+1) (bispecific antibody, human IgG1, L234A L235A)
heavy 1: QVQLVQSGAEVKKPGASVKVSCKASGYIFTSYYLHWVRQAPGQGLEWIGYINPQTGKTSYAQKFQGRVTMTRDTSTSTVYMELSSLRSEDTAVYYCAREYGNYNYPLDYWGQGTLVTVSSASTKGPSVFPLAPSSKSTSGGTAWLGCEVTDYFPEPVTVSWNSGALTSGVHTFPAVLESSGLYSLSSVVTVPSSSLGTQTYICNVNHKPSNTKVDKKVEPKSCDKTHTCPPCPAPEAAGGPSVFLFPPKPKDTLMISRTPEVTCVVVSVSHEDPEVKFNWYVDGVEVHNAKTKPREEQYNSTYRVVSVLTVLHQDWLNGKEYKCKVSNKALPAPIEKTISKAKGQPREPQVYVLPPSRDELTKNQVSLLCLVKGFYPSDIAVEWESNGQPENNYLTWPPVLDSDGSFFLYSKLTVDKSRWQQGNVFSCSVMHEALHNHYTQKSLSLSPGK
light: B1 light with F116A, Q124R, L135V, T178R
heavy 2: not shown
B4: BE-755 (ZW1+2) (bispecific antibody, human IgG1, L234A L235A)
heavy 1: B3 heavy 1
light: B1 light with F116A, Q124R, L135V, T178R
heavy 2: not shown
B5: BE-562 (E-muFc-BGA-5623) (bispecific antibody)
heavy: EVQLLESGGGLVQPGGSLRLSCAASGFTVSAEDVGWVRQAPGKGLEWVSAILDKGGSTYYAESVKGRFTISRDNAKNTLYLQMSSLRAEDTAVYYCARIVYHAGGGVTFDTRGQGTQVTVSSEPKSSDKTHTCPPCPAPPAAGPSVFLFPPKPKDTLMISRTPEVTCVVVDVSHEDPEVKFNWYVDGVEVHNAKTKPREEQYNSTYRVVSVLTVLHQDWLNGKEYKCKVSNKALAAPIEKTISKAKGQPREPQVYTLPPSREEMTKNQVSLTCLVKGFYPSDIAVEWESNGQPENNYKTTPPVLDSDGSFFLYSKLTVDKSRWQQGNVFSCSVMHEALHNHYTQKSLSLSPGKGGGGSQVQLVQSGAEVKKPGASVKVSCKASGYIFTSYYLHWVRQAPGQGLEWIGYINPQTGKTSYAQKFQGRVTMTRDTSTSTVYMELSSLRSEDTAVYYCAREYGNYNYPLDYWGQGTLVTVSSASTKGPSVFPLAPSSKSTSGGTAALGCLVKDYFPEPVTVSWNSGALTSGVHTFPAVLQSSGLYSLSSVVTVPSSSLGTQTYICNVNHKPSNTKVDKKVEPKSCD
light: B1 light
B6: BE-375 (E-IgG1-BGA-5623) (bispecific antibody)
heavy: not shown
light: B1 light
B7: BE-244 (A-(G4S)3-BGA-5623) (bispecific antibody, human IgG1, kappa)
heavy: QVQLVQSGAEVKKPGASVKVSCKASGYIFTSYYLHWVRQAPGQGLEWIGYINPQTGKTSYAQKFQGRVTMTRDTSTSTVYMELSSLRSEDTAVYYCAREYGNYNYPLDYWGQGTLVTVSSASTKGPSVFPLAPSSKSTSGGTAALGCLVKDYFPEPVTVSWNSGALTSGVHTFPAVLQSSGLYSLSSVVTVPSSSLGTQTYICNVNHKPSNTKVDKKVEPKSCDKTHTCPPCPAPPAAGPSVFLFPPKPKDTLMISRTPEVTCVVVDVSHEDPEVKFNWYVDGVEVHNAKTKPREEQYNSTYRVVSVLTVLHQDWLNGKEYKCKVSNKALAAPIEKTISKAKGQPREPQVYTLPPSREEMTKNQVSLTCLVKGFYPSDIAVEWESNGQPENNYKTTPPVLDSDGSFFLYSKLTVDKSRWQQGNVFSCSVMHEALHNHYTQKSLSLSPGKGGGGSGGGGSGGGGSEVQLLESGGGLVQPGGSLRLSCAASGFTVSAEDVGWVRQAPGKGLEWVSAILDKGGSTYYAESVKGRFTISRDNAKNTLYLQMSSLRAEDTAVYYCARIVYHAGGGVTFDTRGQGTQVTVSS
light: B1 light
B8: A-CD137×CEA-M1 (bispecific antibody, human IgG1, kappa)
heavy: QVQLVQSGAEVKKPGASVKVSCKASGYIFTSYYLHWVRQAPGQGLEWIGYINPQTGKTSYAQKFQGRVTMTRDTSTSTVYMELSSLRSEDTAVYYCAREYGNYNYPLDYWGQGTLVTVSSASTKGPSVFPLAPSSKSTSGGTAALGCLVKDYFPEPVTVSWNSGALTSGVHTFPAVLQSSGLYSLSSVVTVPSSSLGTQTYICNVNHKPSNTKVDKKVEPKSCDKTHTCPPCPAPPAAGPSVFLFPPKPKDTLMISRTPEVTCVVVDVSHEDPEVKFNWYVDGVEVHNAKTKPREEQYNSTYRVVSVLTVLHQDWLNGKEYKCKVSNKALAAPIEKTISKAKGQPREPQVYTLPPSREEMTKNQVSLTCLVKGFYPSDIAVEWESNGQPENNYKTTPPVLDSDGSFFLYSKLTVDKSRWQQGNVFSCSVMHEALHNHYTQKSLSLSPGKGGGGSEVQLLESGGGLVQPGGSLRLSCAASGFTLSAEDMGWVRQAPGKGLEWVSAILDFGGSTYYAESVKGRFTISRDNAKNTLYLQMSSLRAEDTAVYYCARVVYHAGGGVTFDYWGQGTLVTVSS
light: B1 light
B9: A-CD137×CEA-M2 (bispecific antibody)
heavy: B8 heavy with F481R
light: B1 light
notes: V35M as printed
B10: A-CD137×CEA-M4 (bispecific antibody, human IgG1, kappa)
heavy: B8 heavy with F481R, M488V
light: B1 light
B11: A-CD137×CEA-M5 (bispecific antibody)
heavy: B8 heavy with E516D
light: B1 light
notes: V35M as printed
B12: A-CD137×CEA-M6 (bispecific antibody)
heavy: B8 heavy with F481R, E516D
light: B1 light
notes: V35M as printed
B13: A-CD137×CEA-M7 (bispecific antibody, human IgG1, kappa)
heavy: B8 heavy with M488V, E516D
light: B1 light
B14: Format A - BGA-3285 (bispecific antibody, human IgG1, kappa)
heavy: B8 heavy with L483I, M488V, Y565T, W566R, L571Q
light: B1 light
notes: Light chain by the description of Format A
B15: Format A - BGA-3953 (bispecific antibody, human IgG1, kappa)
heavy: B8 heavy with L483V, M488V, F508S, V553I, Y565T, W566R, L571Q
light: B1 light
notes: as for B14
B16: Format A - BGA-5385 (bispecific antibody, human IgG1, kappa)
heavy: B8 heavy with M488V, F508H, V554I, Y565T, W566R, L571Q
light: B1 light
notes: as for B14
B17: Format A - BGA-7746 (bispecific antibody, human IgG1, kappa)
heavy: B8 heavy with L483V, M488V, Y565T, W566R, L571Q
light: B1 light
notes: as for B14
B18: Format A - BGA-8425 (bispecific antibody, human IgG1, kappa)
heavy: B8 heavy with M488V, F508S, F563Y, W566R, L571Q
light: B1 light
notes: as for B14
B19: Format A - BGA-9468 (bispecific antibody, human IgG1, kappa)
heavy: B8 heavy with L483V, M488V, F508S, A557S, Y565L, W566R, L571Q
light: B1 light
notes: as for B14

biological target: T1, full-length human CD137 (huCD137) (human, UniProt Q07011 24-255); assay: cell-based or functional assay
T1 sequence (Q07011 24-255 limits assumed): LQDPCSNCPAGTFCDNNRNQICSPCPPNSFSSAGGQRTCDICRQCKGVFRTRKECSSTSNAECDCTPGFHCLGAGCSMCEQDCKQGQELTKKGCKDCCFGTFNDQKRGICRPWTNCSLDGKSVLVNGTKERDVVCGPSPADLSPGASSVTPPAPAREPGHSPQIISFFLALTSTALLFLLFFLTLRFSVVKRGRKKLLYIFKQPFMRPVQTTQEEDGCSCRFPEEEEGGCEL

Binder | Functional assay EC50 (ug/ml), in vitro CD137 activation (PBMC cytokine release) [µg/mL]
B1 | 0.01
B2 | 0.17
B3 | 25.1
B4 | 1.16
B5 | 4.69
B6 | 1.76
B7 | 0.18

biological target: T1, full-length human CD137 (huCD137); assay: flow cytometry on Hut78/huCD137 cells

Binder | binding result | EC50 (read off the curve) [mg/L]
B8 | binds | 
B9 |  | ~2
B10 | binds | 
B11 |  | ~2
B12 |  | ~2
B13 |  | ~0.1

biological target: human CD137 ECD-mIgG2a (human); assay: SPR, antibody captured on anti-human Fc surface; analyte taken as human CD137 ECD-mIgG2a
Sequence (chain, as listed by the source limits assumed): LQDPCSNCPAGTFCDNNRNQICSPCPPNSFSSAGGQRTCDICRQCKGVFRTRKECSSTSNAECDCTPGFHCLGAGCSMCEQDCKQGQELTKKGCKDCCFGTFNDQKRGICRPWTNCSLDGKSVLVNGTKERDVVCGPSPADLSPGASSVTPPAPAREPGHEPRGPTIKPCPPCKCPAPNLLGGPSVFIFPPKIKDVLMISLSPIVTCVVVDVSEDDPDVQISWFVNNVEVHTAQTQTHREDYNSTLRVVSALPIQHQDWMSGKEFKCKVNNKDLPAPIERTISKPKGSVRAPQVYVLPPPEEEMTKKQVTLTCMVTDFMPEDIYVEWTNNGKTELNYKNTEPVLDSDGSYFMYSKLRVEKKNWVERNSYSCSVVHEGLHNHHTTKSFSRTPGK

Binder | Kd [µM] | koff [s⁻¹] | kon [M⁻¹ s⁻¹]
B8 | 0.586 | 0.00455 | 7770
B9 | 0.232 | 0.0105 | 45200
B10 | 0.194 | 0.0247 | 127000
B11 | 0.646 | 0.00574 | 8890
B12 | 0.767 | 0.0114 | 14800
B13 | 0.266 | 0.003 | 11300

biological target: human CD137 ECD-mIgG2a (human); assay: SPR, multispecific antibody captured on anti-human IgG Fc chip, human CD137 ECD-mIgG2a flowed over
Experimental: Briefly, anti-human IgG (Fc) antibody was immobilized on an activated CM5 biosensor chip (Cat.: BR100839, GE Life Sciences). Anti-huCD137 monoclonal antibodies or multispecific antibodies were flown through the chip surface and captured by anti-human IgG (Fc) antibody. […] The equilibrium dissociation constant (KD)) was calculated as the ratio koff/kₒₙ.

Binder | Kd [µM]
B14 | 0.798
B15 | 0.115
B16 | 0.154
B17 | 0.245
B18 | 0.189
B19 | 0.873
